Test results reported in paper PMC2171753 (The Journal of Cell Biology, 2005).
Numbering of substitutions follows the chain as printed. Numbers in names are those of the source.

B1: GST-EB1_(185-255) (domain or fragment, human, UniProt Q15691 185-255, looked up)
chain: GVGNGDDEAAELMQQVNVLKLTVEDLEKERDFYFGKLRNIELICQENEGENDPVLQRIVDILYATDEGFVI
B2: full-length EB1 F216A (natural protein, human, UniProt Q15691 1-268, looked up)
chain: MAVNVYSTSVTSDNLSRHDMLAWINESLQLNLTKIEQLCSGAAYCQFMDMLFPGSIALKKVKFQAKLEHEYIQNFKILQAGFKRMGVDKIIPVDKLVKGKFQDNFEFVQWFKKFFDANYDGKDYDPVAARQGQETAVAPSLVAPALNKPKKPLTSSSAAPQRPISTQRTAAAPKAGPGVVRKNPGVGNGDDEAAELMQQVNVLKLTVEDLEKERDAYFGKLRNIELICQENEGENDPVLQRIVDILYATDEGFVIPDEGGPQEEQEEY
B3: full-length EB1 Y217A (natural protein, human, UniProt Q15691 1-268, looked up)
chain: B2 chain with A216F, Y217A
B4: full-length EB1 K220A (natural protein, human, UniProt Q15691 1-268, looked up)
chain: B2 chain with A216F, K220A
B5: full-length EB1 F218A (natural protein, human, UniProt Q15691 1-268, looked up)
chain: B2 chain with A216F, F218A
B6: full-length EB1 E225A (natural protein, human, UniProt Q15691 1-268, looked up)
chain: B2 chain with A216F, E225A

Legend:
GFP-APC_(2744-2843) = GFP-APC_(2744-2843) (human, UniProt P25054 2744-2843); assay: pull-down
[1] = biological target: APC-GFP fusion construct, APC residues 2760–2831 (human, UniProt P25054 2760-2831); assay: pull-down
[2] = biological target: APC-GFP fusion construct, APC residues 2739–2831 (human, UniProt P25054 2739-2831); assay: pull-down
SEC = biological target: the molecule itself; assay: SEC
GST-EB1_(185-255) = biological target: B1; assay: pull-down

Chain of GFP-APC_(2744-2843) (P25054 2744-2843): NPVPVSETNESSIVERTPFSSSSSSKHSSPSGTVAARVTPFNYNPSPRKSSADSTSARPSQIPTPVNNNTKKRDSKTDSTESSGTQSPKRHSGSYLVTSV

Binder	stoichiometry N (SEC)	other results
B1		binding result (GFP-APC_(2744-2843)): binds; binding result [1]: binds; binding result [2]: binds
B2	2	
B3	2	
B4	2	
B5	2	
B6	2	
TPFNYNPSPRKSSADSTSARPSQIPTPVNNNTKKRDSKTDSTESSGTQSP (domain or fragment, human, UniProt P25054 2782-2831, looked up) [APC-GFP fusion construct, APC residues 2782–2831]		binding result (GST-EB1_(185-255)): binds
